Measurements taken from the DeepSol protein solubility set.

assay: soluble on expression in E. coli; label from the status in PepcDB or PDB records

Which “soluble on expression in E. coli” value does the source give for “MSLSELINNREKRVQTLKEIILHLHRGEAPAAVRGRLAALIADVDASEVAAMEQELMAEGMSHQEVQSLCDLHADVLQDVMTRPATPMPLAPGHPVHQLRAENRALGAAAQTARQRVRELAALADEGRFDAERVEALRAFEVLWEVDRHYQRKEHLVFSVLERHGTTGPSKVMWGKDDEVRDLLKASLAALGEEGVSGAELKVVAETVLEPALSALEGMIYKEENILLPMTLGLFTAEDWGEIFRQSPEYGWCLVQPGTGYRPPEPRPVTDAVKLPPAQAVQFPSGTLSFEQLLGLFQALPVDLTFVDRDDRVAFFSEGPDRVFARSRAVIGREVKHCHPPKSVHVVERIVEDFKAGRQSVAEFWIDLHGRFVHIRYFAVRDAAGAYLGTLEVTQDLTRLRALEGERRLLAYDAGPAHDPITREGHHHHHH” here?
The value was “soluble”.

For “MYKLSGKAVEDFRGIYDYTLGKFGDEQADRYTDSLGTFLDTLSQMPEIGQDYDAIPEVKKIAFRFHTVYYVIRVDDILIARILHQLMEPRRHW”, which “soluble on expression in E. coli” value is on record?
Its value is “soluble”.

With “MKTQHVVVVGAGMGGLAAAIDLASRGLRVTVLERSPSPGGKMREIAVGGARLDAGPTVFTMRWVFEELFADAGASLGESLRLRAAEVLARHTWGDGAPFDLFADAARSTEAVGELAGAAEAKRFVAFCARARGIWQALEGPFIRGQRPSPGELVRRSGLSGLSGLARISPFTLLWKALGEHFHDPRLRQLFGRYATYCGSSPFLAPATLMLVAHVEQQGVWMVDGGMHQIARAMADLATAKGATFRYSTTAESVLVENGKVGGLILQGGERLAADIVLINGDAAALAARCFGPQVAAAVPPVPPTARSLSAVTWGLLAEAEGFPLLRHSVFFGNDYPGEFRDIFTHGRLPSSPTVYVCAQDRGDKAPTVGPSGPRPERLLVLVNAPARGDLSFPDAMELDTCTARTFAFLERCGLTLRRTPEATRVTTPADFNSLFPATGGALYGRASHGWSATFDRPGAKTAMPGLYLAGGSVHPGPGVPMAALSGRLAAQAVLADLTSRGRLEHHHHHH” as the sequence, how does the “soluble on expression in E. coli” value read?
The value was “not soluble”.

For “MIRLIFLDIDKTLIPGYEPDPAKPIIEELKDMGFEIIFNSSKTRAEQEYYRKELEVETPFISENGSAIFIPKGYFPFDVKGKEVGNYIVIELGIRVEKIREELKKLENIYGLKYYGNSTKEEIEKFTGMPPELVPLAMEREYSETIFEWSRDGWEEVLVEGGFKVTMGSRFYTVHGNSDKGKAAKILLDFYKRLGQIESYAVGDSYNDFPMFEVVDKVFIVGSLKHKKAQNVSSIIDVLEVIKHHHHHH”, which “soluble on expression in E. coli” value is on record?
Its value is “soluble”.

Which “soluble on expression in E. coli” value does the source give for “MGSDKIHHHHHHMKIDFHTHIYPDHVAVRTIAAVRQRAGIEAHTDGTLKGLKRSMTAAGIDISVVAAVATRPEQVSSIHCWLGGIRQPGIETMATTHPSNPLKSEQIKSLKRRGFKGFKLHPDYQHFFVDDFRMYPFYEAAAAEGMFILFHAGMDRGLPYPVHATPKRLAAVHEAVPRLCMIAAHLGGEEAYEETVAHLLGKDLYLDTSFVLRKMPRLFLERIFREHPPDKLLFASDSPWTDQREELNFLLQLPFLSVQDQEKICFSNAARLLGREA” here?
The value was “not soluble”.

With “MSLMFERSPDDPLPLVYACSGCSNVAQLANDLALRLDRARLAEMSCIAGVGGDVPLLVRRARSGRPILALDGCPLHCVKGCLARHEVVPTLHLTLSEHGLKKRYGEDCEAQDAERLFVELERLLTPGGKRRCEEGHHHHHH” as the sequence, how does the “soluble on expression in E. coli” value read?
The value was “soluble”.

Which “soluble on expression in E. coli” value does the source give for “MGSDKIHHHHHHMNFEIPQSLIHPLLALIQAESPLARQLREHGVCHGNMVVSARLFDAQSLSSLYTLSKAQNERELLFQMLALDNIYNAPQARTIPGLEMLVAGLIAYLSRDAIDGWLYQRSRDGVLLPWLVQRIRHVEPEQGMPYVAIDMLANTMLSANSEQTDPTRRRSGMTTSIIVTRDEIVDRTIPELLAEFGFFKECAEFRREYEIHAQRFVRYQRSFGAQFIATRAGFTVEGKNTVALARIADGVTARCINDEERLERRFEMNCDAEFWRRAGVVSGFEKVPLHGYVHLFHLEWHQNIWVHVQHLSEYKYRPELRDKLVLPDHHRDLIDILTSHMDVLVQDFVPGKSGGTTILCQGAPGLGKTLTAEIYAEVVGKPLYRVHSGQLGTTAASVGATLMEILRRAMRWNAVLLLDEADVYIRRRDNDLEHNAIVAEFLRTLEYFSGLLFMTTNRTGDVDDAILSRCIATIQYETPCREDAARLWRLQADQCGVSLQDELVDALTAAYPKASGRDIKELMKLATRYSEAKQIALSEDVFRLCAQFRAIE” here?
The value was “not soluble”.
